± gives the uncertainty stated by the source.
Experiment: amyloid nucleation score (Sup35N fusion, yeast selection) (log enrichment); library NNK2; higher = more nucleation; inactive = no reads after selection
Method in brief: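 On medium lacking adenine and uracil, psi-negative yeast expressing peptides of 20 random codons fused to Sup35N were grown 7 days at 30°C after a 24-hour induction with 100 μM copper sulfate. Illumina sequencing of input and output plasmid inserts gave the reads, and sequences under 100 input reads were excluded. The nucleation score is the DiMSum log enrichment of output over input reads, centred on the mode score of non-aggregating sequences.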

Substance	amyloid nucleation score
KRSFVIRNLGFCALRLHISV	4.63 ± 0.11
KRSTNWKDC	-1.07 ± 0.64
KRWLKMWKRWQRRFMCGLLS	0.472 ± 0.32
KSASRYNRQWNRHSYWMANR	-0.064 ± 0.34
KSCSMMFILWVTAGMDRWGH	6.25 ± 0.09
KSFGCIRKCEDCYIW	0.74 ± 0.51
KSHSDSFDYW	0.233 ± 0.74
KSIESGRIRK	0.627 ± 0.35
KSINNC	0.181 ± 0.26
KSINSFYKRIDVVWGMRSQS	-0.984 ± 0.33
KSIRAYYYVSRQ	0.263 ± 0.25
KSLDFR	0.493 ± 0.46
KSRWRQRILVPIPWWARHVE	0.239 ± 0.29
KSSNHITRFRSHSMETSRMV	inactive
KSVFYIWFSHRVSVVAVRQL	5.13 ± 0.093
KSVSVGQVRTCPYSFISPVL	0.247 ± 1
KTIPSGVVGWVSEGQRSTNR	7.87 ± 0.08
KTLVKESCCNLNSRSDLWGL	-0.754 ± 0.76
KVINFGCTTFDYGYATYFGQ	6.66 ± 0.055
KVLFTGFFANVGFSSSVRAN	-0.567 ± 1.1
KVLTCRIYSIWVLIC	0.009 ± 0.32
KVMVRLGSNSAAKYFYVNRV	3.84 ± 0.057

Substance	amyloid nucleation score
KVRGPSNNVSSQKAHDRFDS	0.277 ± 0.28
KVSHAWM	0.704 ± 0.53
KVTSRTTGMIVSFFMPCLEM	5.97 ± 0.072
KWFLGCRVDHRMRVRMCLQ	-0.292 ± 0.54
KWMFEVTVYGRWYVTHQAGL	4.827 ± 0.041
KWVGWMWGYEGSLWSSNLWR	0.242 ± 0.77
KYCDWYL	-0.274 ± 0.22
KYDGAFQRGGIIQISYLCLW	4.87 ± 0.071
KYENYLCITFMGCLLGMRSE	inactive
KYFIASLDQFSYISVHNEVV	inactive
KYGNFVFTFLLINPF	inactive
KYMCSLMEATFLYNGSALRC	-1.6 ± 1.1
KYMINAYTAGWIGV	-1.41 ± 0.34
KYSIGTETVHGCLQPLCPAH	-0.095 ± 0.46
KYSTISRCAYSRIDVCGKKK	0.488 ± 0.33
KYYCATSSVFYASSRQMFKS	-0.267 ± 0.49
LAAKFCCQLSFGSFCDCIFR	7.82 ± 0.084
LAAWLWYTWKG	0.589 ± 0.66
LADSAYTPY	-0.727 ± 0.54
LAGFGMNFSFRFSVLTWGSV	3.13 ± 0.09
LAGLYGNFCISRCSVANQMV	2.08 ± 0.095
LAISHMLSKCVKKIDTL	1.56 ± 0.2

Substance	amyloid nucleation score
LAKWGKLCCVLYQYPVSLGE	0.71 ± 0.28
LAQSYVSYS	-1.45 ± 0.54
LAQVFIIEAPFMTKFLPMLR	2.81 ± 0.097
LCDLVKASSMFANGSDHFIV	-0.569 ± 0.61
LCDTVTYWVPLC	4.28 ± 0.094
LCHTRCDRNSSCLL	-0.56 ± 0.79
LCIFYNWRCV	6.76 ± 0.024
LCISCNVGLGSIKVRNNAFA	6.12 ± 0.042
LCKYDGCMIAYGVLHSSSAG	0.651 ± 0.26
LCNGKAPCFKLCIRCLVGLW	2.82 ± 0.13
LCNMHIMRFNM	-1.07 ± 1.1
LCQIANNSVGLRKDQEGLR	0.375 ± 0.41
LCRYARCLIVSFVRIFGCCL	-0.47 ± 1.1
LCVCRPGRRSIYLMVWVWWN	-0.513 ± 0.53
LCVLLHVTEKLKANSTLSCV	-0.317 ± 1.1
LDALVSWSLECGWYESCWSR	-0.025 ± 0.32
LDFVQCILAVIQGSRDAAGA	0.438 ± 0.64
LDICCIRGMNRHFRFYNVDV	-0.402 ± 0.61
LDIPNGNYVLMSYR	0.32 ± 0.44
LDITVCMRFKAPAIIWAYYF	-0.657 ± 0.48
LDLDMRGKHFVFHHTVKHAI	1.79 ± 0.14
LDPCGYVVSSEGMLVIGVPI	0.209 ± 0.39

Substance	amyloid nucleation score
LDPLRPG	1.14 ± 0.39
LDRGVVSLRLLFARAHNYSK	2.88 ± 0.15
LDVPARSMCFY	-0.761 ± 0.61
LECCG	-0.838 ± 0.55
LEDGRTSLGMTQRYSIRNIC	-1.11 ± 0.55
LEGGGGFSRAL	-0.651 ± 1.1
LEQKVIIRCCPN	0.091 ± 0.18
LERFEH	2.01 ± 0.24
LERGENEVRWTKKLRIKFVF	-0.228 ± 1.1
LESMFNVL	-0.44 ± 0.56
LEVKARFP	-0.471 ± 0.45
LEYCDATLVVRDRQVSAVFL	0.584 ± 0.35
LFARLLLHYVTS	9.204 ± 0.08
LFCVDNVVKKGTVP	-0.365 ± 0.76
LFERLELFWYNEGHIMGFGL	3.42 ± 0.049
LFFDTCRIPRSYWSCLEEES	-0.206 ± 0.42
LFFTFSKKFAR	3.48 ± 0.068
LFHFGNCSRIRGWGICVTSL	-0.506 ± 0.55
LFISFAACGTF	2.09 ± 0.11
LFLFGSV	0.28 ± 0.62
LFLLFFRFFQMGDLHYIIAI	-0.661 ± 1.1

Source: the supplement of paper PMC12042874
